From publication doi:10.1101/2024.09.16.613291
Where two headings read alike, the source gives them in different places.

Columns and labels:
[1] = target: PP2A:B55 holoenzyme (PP2Aa:B55:PP2Ac), purified, active, methylated on PP2Ac L309 (UniProt P30153)
[2] = target: PP2A:B55 holoenzyme (PP2Aa:B55:PP2Ac), purified, active, methylated on PP2Ac L309 (UniProt P30153); remark: listed apart in the source

Sequence of UniProt P30153 (P30153 9-589, chain 1 of 3): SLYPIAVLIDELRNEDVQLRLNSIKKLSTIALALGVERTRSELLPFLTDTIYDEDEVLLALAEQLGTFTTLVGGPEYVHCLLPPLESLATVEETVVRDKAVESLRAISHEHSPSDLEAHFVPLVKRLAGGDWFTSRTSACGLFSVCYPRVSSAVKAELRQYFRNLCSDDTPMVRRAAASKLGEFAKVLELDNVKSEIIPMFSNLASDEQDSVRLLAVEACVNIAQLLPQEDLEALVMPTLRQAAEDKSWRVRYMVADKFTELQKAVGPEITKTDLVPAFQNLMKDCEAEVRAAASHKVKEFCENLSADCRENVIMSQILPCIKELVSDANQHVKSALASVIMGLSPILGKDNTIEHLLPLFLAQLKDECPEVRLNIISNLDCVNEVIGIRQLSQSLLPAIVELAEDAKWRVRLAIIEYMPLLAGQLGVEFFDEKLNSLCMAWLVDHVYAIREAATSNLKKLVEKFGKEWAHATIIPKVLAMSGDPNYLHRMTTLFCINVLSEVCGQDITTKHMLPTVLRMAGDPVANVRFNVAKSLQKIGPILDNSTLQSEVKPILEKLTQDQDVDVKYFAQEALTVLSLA
Sequence of UniProt P30153 (P63151 whole entry, chain 2 of 3, further chain): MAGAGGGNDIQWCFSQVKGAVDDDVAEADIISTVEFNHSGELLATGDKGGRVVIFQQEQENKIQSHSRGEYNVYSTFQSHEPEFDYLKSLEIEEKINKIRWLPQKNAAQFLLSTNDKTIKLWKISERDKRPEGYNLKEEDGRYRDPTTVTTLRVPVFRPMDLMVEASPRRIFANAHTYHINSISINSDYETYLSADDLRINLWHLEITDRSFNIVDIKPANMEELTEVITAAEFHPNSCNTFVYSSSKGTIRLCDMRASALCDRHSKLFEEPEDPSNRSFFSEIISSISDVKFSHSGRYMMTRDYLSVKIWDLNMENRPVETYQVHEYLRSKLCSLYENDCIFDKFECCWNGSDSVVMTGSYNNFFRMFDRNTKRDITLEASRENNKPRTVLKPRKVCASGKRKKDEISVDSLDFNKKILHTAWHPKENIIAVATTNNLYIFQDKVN
Sequence of UniProt P30153 (P67775 whole entry, chain 3 of 3, further chain): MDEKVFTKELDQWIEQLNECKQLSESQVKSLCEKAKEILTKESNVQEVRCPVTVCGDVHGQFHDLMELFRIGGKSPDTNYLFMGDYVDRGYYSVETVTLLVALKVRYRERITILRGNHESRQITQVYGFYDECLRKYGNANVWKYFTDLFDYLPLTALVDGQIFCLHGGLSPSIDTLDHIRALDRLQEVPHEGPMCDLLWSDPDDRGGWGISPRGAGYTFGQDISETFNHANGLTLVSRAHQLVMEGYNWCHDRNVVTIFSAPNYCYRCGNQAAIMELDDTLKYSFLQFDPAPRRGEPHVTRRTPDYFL

B1: p107 interdomain region (residues 612-687) (domain or fragment)
chain: MPMSPLMHPRVKEVRTDSGSLRRDMQPLSPISVHERYSSPTAGSAKRRLFGEDPPKEMLMDKIITEGTKLKIAPSS
- IC50 of inhibition of PP2A:B55 (1 nM) dephosphorylation of DiFMUP (50 uM) [1]: 245 nM

Binder: RSSNDYTSQMYSAKPYAHILSVPVSETAYPGQTQYQTLQQTQPYAVYEE (domain or fragment) [Eya3 PP2A:B55 interaction domain (aa 62-108) with C-terminal EE]
- IC50 of inhibition of PP2A:B55 (1 nM) dephosphorylation of DiFMUP (50 uM) [2]: 1100 nM
